Test results reported in article PMC10202384.

Target: recombinant monomeric RBD of the SARS-CoV-2 spike protein, tag cleaved, labelled with Alexa Fluor 488 (SARS-CoV-2) (UniProt P0DTC2)
Experiment: fluorescence polarisation

In the case of “platelet-derived purified human αIIbβ3 protein (from UniProt P05106 27-788) (complex)”, the Kd is reported as 0.096 µM and the stoichiometry N is reported as 1.3.
